Reference: patent US6191256A, “Recombinant factor VIII binding peptides” (Bayer Corporation, priority 1998, dated 2001)

How the values were obtained:
rFVIII [1] = biological target: T1, rFVIII (Homo sapiens, UniProt P00451); test: rFVIII activity recovery from peptide columns by chromogenic substrate assay (COATEST); assay type: biochemical; settings: for 0.5M CaCl2 IU / 2% acetic acid % total / 2% acetic acid IU / Flow through % total / Total IU / 0.5M CaCl2 % total / Flow through IU: Table 8; for 0.5M CaCl2 % total: activity recovery; for Flow through IU: rFVIII activity in fraction; for Activity results % total: Table 9, 0.5M CaCl2 fraction
Description: (§1) Immunoassay on rFVIII using a sandwich capture ELISA for the light chain and activity assay using a chromogenic substrate (COATEST Factor VIII kit from diaPharma, Franklin, Ohio) were performed on a BIOMEK® automated liquid handling system from Beckman Instruments (Brea, Calif.). The monoclonal antibody for rFVIII light chain (known as C7F7), the ELISA assay standard (lot A70K019), and the control for the activity assay (lot A70A001 @ 140 IU/mL) were from the Bayer Corporation (Berkeley, Calif.). The standard for the activity assay was at 11.2 IU/mL (Bayer, Clayton, N.C.), calibrated against the MEGA 1 standard, which is a working standard used by American manufacturers for measuring factor VIII activity (21).
(§2) Additional confirmatory binding assay and performance of the discovered binding peptides in terms of total rFVIII and activity recovery was performed in a column chromatographic format on a microbore HPLC. The resins were packed into 0.4×5 cm columns (Thomson, Springfield, Va.) and tested on the MICHROM HPLC system (Michrom BioResources, Auburn, Calif.). The elution program for the trials utilized the following method. The column was pre-equilibrated with equilibration buffer (as above). A 1 mL aliquot of 1:10 PPF followed by 1 mL of rFVIII (10,000 ng) in 1:10 PPF were injected and allowed sufficient time to flow through the column using equilibration buffer. The column was then washed with step elutions of 0.5 M and 1.0 M CaCl2 in equilibration buffer. The column was exposed to equilibration buffer. Remaining protein was eluted with 2% by volume glacial acetic acid in water. Columns were kept at 5° C. during the chromatographic runs. For each 1 mL injection (equilibration buffer, 1:10 PPF and 10,000 ng rFVIII in 1:10 PPF), the chromatographic cycle was run for 45 minutes (injection, flow through, 0.5 M CaCl2, 1.0 M CaCl2, equilibration buffer, 2% acetic acid, equilibration buffer).
(§3) A Gilson FC204 fraction collector at the HPLC outlet collected individual eluates for further analysis. Each collection tube had 100 μL hSA added to it to stabilize the rFVIII. Fractions collected from the 2% acetic acid eluates were neutralized with 2 M Tris, pH 10.5 to bring the pH to neutrality. The fractions were analyzed for total protein by the integration of the absorbance at 280 nm, for rFVIII by immunoassay (sandwich capture ELISA), and for rFVIII activity by a chromogenic substrate assay.
Tables 7 and 8 list the sequences for which activity recovery was determined by a chromogenic substrate assay (COASTEST kit, diaPharma, Franklin, Ohio). Chromatographc conditions are the same as described above for the results from Tables 5 and 6. It can be

rFVIII [2] = biological target: T1, rFVIII; test: confirmatory binding assay in filtration plate format using 14C-rFVIII; settings: Table 4; for Total dpm / beads % total / beads dpm: 14C-rFVIII 30 nM; for 0.5M CaCl2 % total / 2% acetic acid % total / 2% acetic acid dpm / 0.5M CaCl2 dpm: 14C-rFVIII 30 nM in PPF, 5 mg beads; for 0.5M CaCl2 dpm: 5.0 × 10^15 dpm/mole, 5° C.; for beads % total / beads dpm: remaining on beads after washes
Description: Confirmatory binding assays were performed in a filtration plate format using individual peptide sequences synthesized directly onto the TOYOPEARL AF amino 650 M resin, at a final substitution density of 0.1 mmole/g resin. A slurry of each individual peptide sequence was prepared using deionized water. A 100 μL volume of beads (corresponding to 5 mg) was loaded into each well of the filtration plate (MULTISCREEN Assay System, Millipore, Bedford, Mass.), in triplicate for each peptide sequence. Beads were washed with 20% ethanol and incubated overnight with equilibration buffer (20 mM imidazole, 10 mM
CaCl2, 0.105 M NaCl, pH 6.9). A 100 μL aliquot of ^14 C-rFVIII diluted in neat PPF to a final concentration of 20-30 nM was loaded into each well and incubated for 1 hour at 5° C. Filtrate (unbound ^14 C-rFVIII) was collected into a microtiter plate and transferred to liquid scintillation vials for dpm counting. Beads were washed sequentially with: 100 μL of equilibration buffer for 15 minutes, 200 μL of 0.5 M CaCl2 (in equilibration buffer), 200 μL of 1.0 M CaCl2 (in equilibration buffer), and 200 uL of 2% by volume glacial acetic acid in water, for 1 hour each at 5° C. Scintillation counting on the unbound ^14 C-rFVIII (plus equilibration buffer wash), salt and acid washes, as well as on the beads was then performed and the overall mass balance calculated.
Beads presenting the appropriate peptide sequence on the surface were placed in the filtration plate wells and incubated sequentially with equilibration buffer, ^14 C-rFVIII in PPF, equilibration buffer, 0.5 M CaCl2 wash, 1.0 M CaCl2 wash and 2% acetic acid wash. After each incubation, filtrate was collected in microtiter plates, and dpm counted on each
In Table 3, the ^14 C-rFVIII was loaded at 20 nM (in PPF) and the radiolabeling yield was at 3.0×10^15 dpm/mole. In Table 4, the ^14 C-rFVIII was loaded at 30 nM (in PPF) and the radiolabeling yield was at 5.0×10^15 dpm/mole.

rFVIII [3] = biological target: T1, rFVIII; test: column format binding assay, rFVIII mass per fraction by sandwich capture ELISA for the light chain; settings: for 0.5M CaCl2 ng / 0.5M CaCl2 % total / 2% acetic acid % total / 2% acetic acid ng / Flow through % total / Total ng / Flow through ng: Table 6; for Flow through ng: 10,000 ng rFVIII in 1:10 PPF injected, 5° C.; for ELISA results % total: Table 9, 0.5M CaCl2 fraction
Description: as §1, §2, §3
Tables 5 and 6 present the results from the additional confirmatory binding assays using the column format. The chromatography method was run by injecting the samples at a flow rate of 865 μL/min (413 cm/hr). In order to provide a 10 minute residence time of sample in the column the flow was decreased to 17 μL/min (10 cm/hr) upon injection.
Following the incubation, the flow was set at 865 μL/min (413 cm/hr) for the step clutions of 0.5 M CaCl2, 1.0 M CaCl2, and 2% acetic acid. Results are expressed in terms of the total mass of rFVIII in each fraction, as determined by the sandwich capture ELISA assay for the rFVIII light chain. […] A control using a non-binding peptide sequence (IGF) is also shown for comparison--in this case, 95% of the rFVIII loaded to the column was collected in the flow through fraction. Additional controls with no

T1 sequence (P00451 20-2351): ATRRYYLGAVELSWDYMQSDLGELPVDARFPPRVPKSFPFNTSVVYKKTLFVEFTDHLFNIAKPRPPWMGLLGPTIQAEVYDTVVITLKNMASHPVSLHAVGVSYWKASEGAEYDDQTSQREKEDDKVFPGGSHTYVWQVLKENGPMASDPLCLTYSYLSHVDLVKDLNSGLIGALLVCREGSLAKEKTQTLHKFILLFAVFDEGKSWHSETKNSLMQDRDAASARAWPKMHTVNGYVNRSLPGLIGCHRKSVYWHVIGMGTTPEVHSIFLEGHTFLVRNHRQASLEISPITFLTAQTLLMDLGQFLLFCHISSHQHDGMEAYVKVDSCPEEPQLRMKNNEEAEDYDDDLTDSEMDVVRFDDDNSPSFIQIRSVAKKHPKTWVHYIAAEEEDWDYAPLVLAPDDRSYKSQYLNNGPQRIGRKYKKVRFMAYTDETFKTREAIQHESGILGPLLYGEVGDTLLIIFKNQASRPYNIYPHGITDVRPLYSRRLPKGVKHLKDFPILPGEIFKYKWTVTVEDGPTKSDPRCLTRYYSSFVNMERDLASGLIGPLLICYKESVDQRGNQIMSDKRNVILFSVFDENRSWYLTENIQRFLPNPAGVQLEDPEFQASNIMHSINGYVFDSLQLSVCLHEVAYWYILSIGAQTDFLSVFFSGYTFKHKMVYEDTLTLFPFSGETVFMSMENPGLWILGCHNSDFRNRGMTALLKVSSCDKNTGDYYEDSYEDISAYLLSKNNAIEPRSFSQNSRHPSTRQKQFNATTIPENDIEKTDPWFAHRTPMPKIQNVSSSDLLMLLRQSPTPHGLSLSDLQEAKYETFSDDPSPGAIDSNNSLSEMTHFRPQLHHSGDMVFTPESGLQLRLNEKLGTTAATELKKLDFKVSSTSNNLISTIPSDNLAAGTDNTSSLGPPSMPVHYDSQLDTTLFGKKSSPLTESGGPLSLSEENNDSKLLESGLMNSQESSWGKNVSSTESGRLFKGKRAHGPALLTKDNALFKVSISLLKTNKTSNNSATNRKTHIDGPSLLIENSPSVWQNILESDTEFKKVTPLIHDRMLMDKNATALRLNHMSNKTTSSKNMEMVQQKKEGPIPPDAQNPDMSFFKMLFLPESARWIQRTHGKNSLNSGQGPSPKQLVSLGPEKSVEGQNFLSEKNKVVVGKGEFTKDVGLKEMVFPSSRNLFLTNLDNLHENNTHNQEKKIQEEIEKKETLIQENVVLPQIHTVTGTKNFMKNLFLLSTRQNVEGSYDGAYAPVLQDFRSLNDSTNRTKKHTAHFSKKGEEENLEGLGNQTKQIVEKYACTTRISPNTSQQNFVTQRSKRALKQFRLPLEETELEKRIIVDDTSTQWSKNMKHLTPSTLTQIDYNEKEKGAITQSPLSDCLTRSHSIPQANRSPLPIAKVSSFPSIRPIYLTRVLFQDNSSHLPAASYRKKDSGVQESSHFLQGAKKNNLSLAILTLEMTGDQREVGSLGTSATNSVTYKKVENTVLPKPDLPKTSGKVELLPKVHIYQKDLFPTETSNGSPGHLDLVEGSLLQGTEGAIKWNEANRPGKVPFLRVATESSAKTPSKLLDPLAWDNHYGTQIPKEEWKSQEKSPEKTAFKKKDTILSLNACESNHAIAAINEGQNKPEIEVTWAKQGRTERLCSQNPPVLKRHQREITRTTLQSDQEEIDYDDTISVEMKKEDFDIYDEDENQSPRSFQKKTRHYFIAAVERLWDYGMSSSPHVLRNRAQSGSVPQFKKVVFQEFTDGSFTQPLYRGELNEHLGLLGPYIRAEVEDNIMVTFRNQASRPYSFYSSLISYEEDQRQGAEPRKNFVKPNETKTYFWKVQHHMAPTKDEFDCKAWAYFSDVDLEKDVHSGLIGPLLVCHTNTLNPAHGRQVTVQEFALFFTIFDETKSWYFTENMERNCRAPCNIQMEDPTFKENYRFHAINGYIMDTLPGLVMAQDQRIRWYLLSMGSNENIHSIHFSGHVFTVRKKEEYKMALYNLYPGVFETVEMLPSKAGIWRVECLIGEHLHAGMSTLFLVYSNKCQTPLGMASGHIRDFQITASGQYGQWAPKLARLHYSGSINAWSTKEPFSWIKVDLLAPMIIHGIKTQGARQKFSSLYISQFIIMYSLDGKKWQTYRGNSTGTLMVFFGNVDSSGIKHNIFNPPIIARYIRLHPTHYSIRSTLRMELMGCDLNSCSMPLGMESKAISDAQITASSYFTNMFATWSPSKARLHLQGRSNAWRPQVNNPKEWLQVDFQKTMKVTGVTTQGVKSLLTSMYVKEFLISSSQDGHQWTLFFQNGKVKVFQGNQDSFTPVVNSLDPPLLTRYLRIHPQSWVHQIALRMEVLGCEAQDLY
T1 sequence (P00451 1668-2351 limits assumed): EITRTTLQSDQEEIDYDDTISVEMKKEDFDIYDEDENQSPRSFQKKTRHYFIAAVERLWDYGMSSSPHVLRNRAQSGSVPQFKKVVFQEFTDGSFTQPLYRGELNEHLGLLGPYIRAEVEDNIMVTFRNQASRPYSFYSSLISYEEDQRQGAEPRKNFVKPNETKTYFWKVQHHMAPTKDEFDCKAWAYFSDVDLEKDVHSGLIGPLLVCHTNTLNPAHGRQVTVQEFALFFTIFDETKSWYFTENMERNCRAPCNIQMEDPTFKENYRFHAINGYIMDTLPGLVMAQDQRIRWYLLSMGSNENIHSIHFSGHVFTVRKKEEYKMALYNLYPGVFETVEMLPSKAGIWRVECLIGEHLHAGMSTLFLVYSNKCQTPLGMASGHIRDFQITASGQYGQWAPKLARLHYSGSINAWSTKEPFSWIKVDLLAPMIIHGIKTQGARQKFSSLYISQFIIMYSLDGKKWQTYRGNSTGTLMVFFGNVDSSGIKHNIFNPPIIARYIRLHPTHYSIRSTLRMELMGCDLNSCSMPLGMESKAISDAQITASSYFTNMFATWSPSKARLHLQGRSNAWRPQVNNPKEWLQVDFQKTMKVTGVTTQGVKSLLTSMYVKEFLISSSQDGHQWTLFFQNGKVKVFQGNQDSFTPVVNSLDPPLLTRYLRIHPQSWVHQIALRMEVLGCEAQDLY

Substance | 0.5M CaCl2 IU (rFVIII [1]) [IU] | 2% acetic acid % total (rFVIII [1]) [%] | 2% acetic acid IU (rFVIII [1]) [IU] | Flow through % total (rFVIII [1]) [%] | Total IU (rFVIII [1]) [IU] | 0.5M CaCl2 % total (rFVIII [1]) [%] | Flow through IU (rFVIII [1]) [IU] | Activity results % total (rFVIII [1]) [%] | Total dpm (rFVIII [2]) [dpm] | 0.5M CaCl2 % total (rFVIII [2]) [%] | 2% acetic acid % total (rFVIII [2]) [%] | 2% acetic acid dpm (rFVIII [2]) [dpm] | 0.5M CaCl2 dpm (rFVIII [2]) [dpm] | beads % total (rFVIII [2]) [%] | beads dpm (rFVIII [2]) [dpm] | 0.5M CaCl2 ng (rFVIII [3]) [ng] | 0.5M CaCl2 % total (rFVIII [3]) [%] | 2% acetic acid % total (rFVIII [3]) [%] | 2% acetic acid ng (rFVIII [3]) [ng] | Flow through % total (rFVIII [3]) [%] | further results
11 (NAIFQW) [compound 11] | 54.4 | 0 | 0.0 | 4 | 60.4 | 90 | 2.5 | 90 | 2208 | 48 | 23 | 518 | 1049 | 29 | 641 | 7481 | 78 | 11 | 1069 | 7 | Total ng (rFVIII [3]): 9641 ng; Flow through ng (rFVIII [3]): 639 ng; ELISA results % total (rFVIII [3]): 78%
12 (QRLIQF) [compound 12] | 45.1 | 0 | 0.08 | 0 | 46.6 | 97 | 0.0 | 97 | 3557 | 90 | 8 | 271 | 3191 | 3 | 95 | 9223 | 96 | 2 | 188 | 0 | Total ng (rFVIII [3]): 9579 ng; Flow through ng (rFVIII [3]): 0 ng; ELISA results % total (rFVIII [3]): 96%
13 (KAQETW) [compound 13] | 48.3 | 0 | 0.09 | 2 | 50.3 | 96 | 0.8 | 96 | 4096 | 95 | 3 | 135 | 3884 | 2 | 77 | 8018 | 90 | 1 | 87 | 7 | Total ng (rFVIII [3]): 8863 ng; Flow through ng (rFVIII [3]): 641 ng; ELISA results % total (rFVIII [3]): 90%
